Source: PMC10462622 (Nature Communications, 2023)

T1: near-full-length human CUL5 (residues 12-780) (human, UniProt Q93034 12-780)
T1 construct: not shown: GB1, N-terminal, cleaved
T1 sequence: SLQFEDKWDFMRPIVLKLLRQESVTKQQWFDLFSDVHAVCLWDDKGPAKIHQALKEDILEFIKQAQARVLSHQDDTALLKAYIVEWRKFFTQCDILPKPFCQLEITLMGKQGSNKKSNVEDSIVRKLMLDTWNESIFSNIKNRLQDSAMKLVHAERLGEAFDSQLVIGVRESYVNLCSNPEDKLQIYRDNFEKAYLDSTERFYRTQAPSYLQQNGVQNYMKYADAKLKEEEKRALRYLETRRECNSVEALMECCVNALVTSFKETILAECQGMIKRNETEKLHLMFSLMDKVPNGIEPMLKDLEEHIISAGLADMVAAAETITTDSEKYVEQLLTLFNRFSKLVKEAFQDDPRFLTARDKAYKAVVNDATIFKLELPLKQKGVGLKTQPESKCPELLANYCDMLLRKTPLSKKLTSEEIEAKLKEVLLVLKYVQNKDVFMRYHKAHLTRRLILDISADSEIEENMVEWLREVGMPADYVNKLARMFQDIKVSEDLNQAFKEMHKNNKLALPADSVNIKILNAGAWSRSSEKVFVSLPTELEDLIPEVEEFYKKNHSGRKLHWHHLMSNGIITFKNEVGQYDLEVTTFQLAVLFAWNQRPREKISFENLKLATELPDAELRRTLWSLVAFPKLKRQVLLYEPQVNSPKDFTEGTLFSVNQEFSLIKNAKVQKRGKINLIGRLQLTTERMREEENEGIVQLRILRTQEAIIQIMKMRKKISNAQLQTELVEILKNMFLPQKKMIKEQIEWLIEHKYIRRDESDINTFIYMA


How the values were obtained:
[1] = biological target: T2, HIV-1 NL4-3 Vif N48H (residues 1-176) (HIV-1 (pNL4-3), UniProt P12504 1-176, N48H); assay: cryo-EM structure; conditions: both partners purified
T2 construct: also called N48H Vif; N48H NL4-3 Vif

[2] = biological target: T1, near-full-length human CUL5 (residues …); assay: cryo-EM structure; conditions: both partners purified

Binder | binding result [1] | binding result [2]
human CBF-β (residues 1-156) (domain or fragment) MPRVVPDQRSKFENEEFFRKLSRECEIKYTGFRDRPHEERQARFQNACRDGRSEIAFVATGTNLSLQFFPASWQGEQRQTPSREYVDLEREAGKVYLKAPMILNGVCVIWKGWIDLQRLDGMGCLEFDEERAQQEDALAQQAFEEARRRTREFEDR | binds | 
human RBX2 (residues 1-113) (natural protein, also called RING-box protein 2; source: E. coli BL21(DE3), co-expressed with GB1-CUL5 (pETDuet-1), purified as CUL5/RBX2 complex (Ni-NTA, SEC)) MADVEDGEETCALASHSGSSGSKSGGDKMFSLKKWNAVAMWSWDVECDTCAICRVQVMDACLRCQAENKQEDCVVVWGECNHSFHNCCMSLWVKQNNRCPLCQQDWVVQRIGK |  | binds
